# Data reported in patent publication US7662384B2, “Use of anti-α5β1 antibodies to inhibit cancer cell proliferation” (Facet Biotech Corporation, priority 2004, dated 2010).
# B1: M200: chimeric IgG4 anti-α5β1 antibody derived from IIA1; generic name volociximab (antibody, V domains shown)
# VH: MAVLGLLLCLVTFPSCVLSQVQLKESGPGLVAPSQSLSITCTISGFSLTDYGVHWVRQPPGKGLEWLVVIWSDGSSTYNSALKSRMTIRKDNSKSQVFLIMNSLQTDDSAMYYCARHGTYYGMTTTGDALDYWGQGTSVTVSS
# VL: MDFQVQIFSFLLISASVIMSRGQIVLTQSPAIMSASLGERVTMTCTASSSVSSNYLHWYQQKPGSAPNLWIYSTSNLASGVPARFSGSGSGTSYSLTISSMEAEDAATYYCHQYLRSPPTFGGGTKLEIKDMSVDMSV
# modifications: chimeric antibody
# notes: chimeric IgG4 anti-α5β1 antibody derived from IIA1; generic name volociximab
# How the values were obtained:
# refractory solid tumors = assay: Phase I dose-escalation study: tumor response (RECIST); type: in vivo, human; design: key to Response outcome: Complete Response (CR): Disappearance of all target lesions confirmed by repeat imaging 25 to 28 days after CR first documented.; Partial Response (PR): At least a 30% decrease in the sum of LD of target lesions, taking as reference the baseline sum LD; Stable Disease (SD): Neither sufficient shrinkage to qualify for PR nor sufficient increase to qualify for PD, taking as references the smallest sum LD.; Progressive Disease (PD): At least a 20% increase in the sum of LD of target lesions, taking as reference the smallest sum LD recorded since treatment started, or the appearance of one or more new lesions
# Procedure: A two-part Phase I open-label study was carried to determine the effects of treatment with up to 6 dose levels, from 0.5 mg/kg to 15.0 mg/kg of M200 (volociximab) in 21 human patients with a variety of refractory solid tumor types. The total duration of treatment for the first part was 6 weeks with physical assessments through 45 days after the last dose.
# The dosing levels and schedule used in the study were as follows. M200 was administered to the 21 patients on days 1, 15, 22, 29, and 36. The dosing levels and numbers of patients per level were: 0.5 mg/kg (1 patient), 1.0 mg/kg (2 patient), 2.5 mg/kg (3 patients), 5.0 mg/kg (3 patients), 10.0 mg/kg (6 patients) and 15 mg/kg (6 patients). The dose was administered as an intravenous infusion over 1 hour. The first and second doses were separated by a two week period to allow sampling for single-dose pharmacokinetic data. The real-time PK measurements performed following the first dose were used to predict each patient's peak serum concentration following the fifth dose. If the predicted peak serum concentration following the fifth dose was <750 μg/mL, the patient received all 5 doses of M200. The remaining 3 doses were given weekly and followed by a 45-day evaluation period.
# Patient evaluations during the study included the following: • a. Screening (within 14 days of study entry) of: medical history and physical examination, ECOG performance status, routine chemistry panel, complete blood count (CBC) with differential and platelets, sensitive C-reactive protein (CRP), urinalysis with microscopic analysis (UA/micro), electrocardiogram (ECG), chest radiograph (CXR), disease-directed body CT or MRI, urine pregnancy test within 48 hours prior to dosing, and coagulation studies (prothrombin [PT] and partial thromboplastin time [PTT]), anti-M200 antibodies (i.e., to detect cross-reactive HAMA or HACA) for patients who previously received murine or chimeric antibodies, head CT for patients with tumors that commonly metastasize to brain or CNS, and, in some patients, a biopsy to evaluate tumor vessel vascularity. • b. On-study laboratory evaluations: routine chemistry panel, urate, serum amylase, CBC with differential and platelets, UA/micro. • c. Routine disease-directed radiographic imaging (e.g., CT scanning) before and after treatment with M200 was used to evaluate tumor response using uni-dimensional, RECIST criteria. Target lesions were selected on the basis of their size (lesions with the longest diameter (LD)) and their suitability for accurate repetitive measurements (either by imaging techniques or clinically). A sum of the LD for all target lesions was calculated and reported as the baseline sum LD. The baseline sum LD was used as reference by which to characterize the objective tumor response. The following response criteria for the target lesions was used to assess the best overall response. • Complete Response (CR): Disappearance of all target lesions confirmed by repeat imaging 25 to 28 days after CR first documented. • Partial Response (PR): At least a 30% decrease in the sum of LD of target lesions, taking as reference the baseline sum LD, confirmed by repeat imaging 25 to 28 days after PR first documented. • Stable Disease (SD): Neither sufficient shrinkage to qualify for PR nor sufficient increase to qualify for PD, taking as references the smallest sum LD. • Progressive Disease (PD): At least a 20% increase in the sum of LD of target lesions, taking as reference the smallest sum LD recorded since treatment started, or the appearance of one or more new lesions. • d. Blood drawn for serum PK measurements, immunogenicity assays (anti-M200 antibodies), vascular growth factors, and measurement of bound and unbound α5β1 on peripheral blood monocytes. • e. A 3-mm punch biopsy of superficial tumor metastasis was obtained and frozen after the last treatment with M200 from patients who consented (not required for enrollment) to the procedure. […]
# CAPAN-2 = assay: M200 in vitro cell proliferation assay; type: cell-based; settings: CAPAN-2 (pancreas), 4-day assay
# Procedure: (§1) Cancer cell lines were plated at a density of 2500 cells/well in 96-well plates in IMDM with supplements in the presence or absence of 10% FBS. At the time of plating, cells were challenged with various concentrations M200 or a non-function blocking anti-α5 antibody, VC5. Four days later, cell viability was assessed by the CellTiter 96 AQueous Non-Radioactive Cell Proliferation Assay (Promega) according to the manufacturer's instructions. All growth studies were done at least 3 times in triplicate.
# 786-0 = assay: M200 in vitro cell proliferation assay; type: cell-based; settings: 786-0 (renal), 4-day assay
# Procedure: as §1
# CHL-1 = assay: M200 in vitro cell proliferation assay; type: cell-based; settings: CHL-1 (melanoma), 4-day assay
# Procedure: as §1
# SW1990 = assay: M200 in vitro cell proliferation assay; type: cell-based; settings: 4-day assay
# Procedure: as §1
# A549 = assay: M200 in vitro cell proliferation assay; type: cell-based; settings: A549 (lung), 4-day assay
# Procedure: as §1
# COLO 357 = assay: M200 in vitro cell proliferation assay; type: cell-based; settings: COLO 357 (pancreas), 4-day assay
# Procedure: as §1
# ASPC-1 = assay: M200 in vitro cell proliferation assay; type: cell-based; settings: ASPC-1 (pancreas), 4-day assay
# Procedure: as §1
molecule,measurement,setting,value
B1,Response outcome,"refractory solid tumors; 0.5 mg/kg, CRC patient","(PD) (Progressive Disease (PD): At least a 20% increase in the sum of LD of target lesions, taking as reference the smallest sum LD recorded since treatment started, or the appearance of one or more new lesions.)"
same,Response outcome,"refractory solid tumors; 1.0 mg/kg, HCC patient",(SD)
same,Response outcome,"refractory solid tumors; 1.0 mg/kg, PC patient",(SD)
same,Response outcome,"refractory solid tumors; 2.5 mg/kg, CRC patient","(PD) (Progressive Disease (PD): At least a 20% increase in the sum of LD of target lesions, taking as reference the smallest sum LD recorded since treatment started, or the appearance of one or more new lesions.)"
same,Response outcome,"refractory solid tumors; 2.5 mg/kg, MEL Ocular patient","(PD) (Progressive Disease (PD): At least a 20% increase in the sum of LD of target lesions, taking as reference the smallest sum LD recorded since treatment started, or the appearance of one or more new lesions.)"
same,Response outcome,"refractory solid tumors; 2.5 mg/kg, NSCLC patient",(SD)
same,Response outcome,"refractory solid tumors; 5.0 mg/kg, EC patient","(PD) (Progressive Disease (PD): At least a 20% increase in the sum of LD of target lesions, taking as reference the smallest sum LD recorded since treatment started, or the appearance of one or more new lesions.)"
same,Response outcome,"refractory solid tumors; 5.0 mg/kg, HCC patient",(SD)
same,Response outcome,"refractory solid tumors; 5.0 mg/kg, THY patient","(PD) (Progressive Disease (PD): At least a 20% increase in the sum of LD of target lesions, taking as reference the smallest sum LD recorded since treatment started, or the appearance of one or more new lesions.)"
same,Response outcome,"refractory solid tumors; 10.0 mg/kg, BC patient",(SD)
same,Response outcome,"refractory solid tumors; 10.0 mg/kg, CRC patient (two patients)",(SD)
same,Response outcome,"refractory solid tumors; 10.0 mg/kg, MEL patient","(PD) (Progressive Disease (PD): At least a 20% increase in the sum of LD of target lesions, taking as reference the smallest sum LD recorded since treatment started, or the appearance of one or more new lesions.)"
same,Response outcome,"refractory solid tumors; 10.0 mg/kg, PARO patient",(SD)
same,Response outcome,"refractory solid tumors; 10.0 mg/kg, RCC patient",(SD)
same,Response outcome,"refractory solid tumors; 15.0 mg/kg, EC patient","(PD) (Progressive Disease (PD): At least a 20% increase in the sum of LD of target lesions, taking as reference the smallest sum LD recorded since treatment started, or the appearance of one or more new lesions.)"
same,Response outcome,"refractory solid tumors; 15.0 mg/kg, PRO patient","(PD) (Progressive Disease (PD): At least a 20% increase in the sum of LD of target lesions, taking as reference the smallest sum LD recorded since treatment started, or the appearance of one or more new lesions.)"
same,overall response outcome: progressive disease (PD),"refractory solid tumors; 21 treated patients, 0.5-15 mg/kg",10 patients
same,% Growth Inhibition +Serum,CAPAN-2; 10% FBS,0%
same,% Growth Inhibition −Serum,CAPAN-2; absence of serum,0%
same,% Growth Inhibition +Serum,786-0; 10% FBS,0%
same,% Growth Inhibition −Serum,786-0; absence of serum,10%
same,% Growth Inhibition +Serum,CHL-1; 10% FBS,0%
same,% Growth Inhibition −Serum,CHL-1; absence of serum,0%
same,% Growth Inhibition +Serum,SW1990; 10% FBS,0%
same,% Growth Inhibition −Serum,SW1990; absence of serum,10%
same,% Growth Inhibition +Serum,A549; 10% FBS,0%
same,% Growth Inhibition −Serum,A549; absence of serum,40%
same,% Growth Inhibition +Serum,COLO 357; 10% FBS,0%
same,% Growth Inhibition −Serum,COLO 357; absence of serum,0%
same,% Growth Inhibition +Serum,ASPC-1; 10% FBS,0%
same,% Growth Inhibition −Serum,ASPC-1; absence of serum,0%
